Assay [1] addresses Soluble Aβ 1-40 (UniProt P05067). The experiment in a line: SPR (BIAcore 2000), antibody captured on anti-Ig, soluble Aβ in flow.
Assay [2] has as its target Soluble Aβ 1-42 (UniProt P05067). The assay is described as above.

pKd: −log10 of the molar value.

For orientation: pKd means −log10 of the Kd, conventionally taken in molar units. High values mean a low Kd, low ones a high Kd.

Turning to Murine anti-Aβ antibody 266, the negative logarithm of the Kd (pKd) in assay [1] and in assay [2] was 11.40 each time. Turning to anti-Aβ murine antibody 4G8, the pKd was 7.64 in assay [1] and 7.62 in assay [2].

In assay [2], anti-Aβ murine antibody 21F12 had a pKd of 8.36.

For the origin of these results see patent US20060073149A1.
